# Assay results: the Human Domainome abundance scans (Beltran et al. 2025)
# ± gives the uncertainty stated by the source.
# B1: WW domain-containing transcription regulator protein 1, residues 116 to 162; numbered along this chain, Q9GZV5 (parent)
# chain: QSYDVTDELPLPPGWEMTFTATGQRYFLNHIEKITTWQDPRKAMNQP
# Variants of: B1
# Experiment: abundance fitness (aPCA) (normalised: wild type 0, dead -1); higher = more abundant; growth selection in yeast, the domain comes from the species named
# Conditions: Homo sapiens
row,Variant,abundance fitness
1,T35H,-0.56 ± 0.039
2,T35E,-0.382 ± 0.041
3,G23I,-0.917 ± 0.12
4,G23M,-0.875 ± 0.079
5,T6V,-0.06 ± 0.026
6,T6Q,-0.142 ± 0.044
7,L11N,-0.789 ± 0.13
8,L11F,-0.08 ± 0.038
9,L11D,-0.732 ± 0.048
10,L11Y,-0.493 ± 0.049
11,Q38I,0.005 ± 0.045
12,Q38M,-0.044 ± 0.028
13,Q38G,-0.264 ± 0.028
14,Q38L,-0.031 ± 0.025
15,Q38W,-0.112 ± 0.033
16,Q38E,-0.117 ± 0.027
17,S2C,-0.192 ± 0.043
18,S2E,-0.274 ± 0.055
19,S2G,-0.034 ± 0.027
20,S2Q,-0.167 ± 0.065
21,S2H,0.149 ± 0.32

row,Variant,abundance fitness
1,S2T,-0.092 ± 0.05
2,S2W,-0.406 ± 0.062
3,A43D,0.071 ± 0.048
4,A43C,-0.056 ± 0.035
5,A43I,-0.073 ± 0.067
6,A43Y,-0.127 ± 0.044
7,T36Y,-0.992 ± 0.21
8,T36M,-0.532 ± 0.033
9,T36V,-0.736 ± 0.04
10,T36D,-0.816 ± 0.073
11,Q24R,-0.222 ± 0.04
12,Q24E,0.185 ± 0.052
13,Y26N,-0.412 ± 0.067
14,Y26P,-0.814 ± 0.15
15,P10G,-0.12 ± 0.028
16,P10R,-0.224 ± 0.028
17,P10D,-0.083 ± 0.043
18,P10F,-0.342 ± 0.038
19,E16H,-0.684 ± 0.12
20,E16M,-0.387 ± 0.038
21,E16N,-0.58 ± 0.091

row,Variant,abundance fitness
1,E16S,-0.081 ± 0.027
2,P12H,-0.907 ± 0.24
3,P12L,-0.738 ± 0.048
4,P12M,-0.862 ± 0.085
5,Y3C,0.262 ± 0.1
6,Y3I,0.274 ± 0.13
7,Y3H,0.013 ± 0.14
8,Y3M,0.182 ± 0.11
9,Q46K,-0.164 ± 0.058
10,Q46P,0.026 ± 0.037
11,L28T,-0.096 ± 0.059
12,L28R,-0.112 ± 0.029
13,L28W,-0.426 ± 0.035
14,L28Y,-0.268 ± 0.087
15,N45S,-0.093 ± 0.041
16,N45H,-0.09 ± 0.036
17,D7E,-0.314 ± 0.05
18,D7C,-0.202 ± 0.05
19,D7K,-0.041 ± 0.039
20,T20C,-0.356 ± 0.029
21,T20Y,-0.796 ± 0.038

row,Variant,abundance fitness
1,T20K,-0.873 ± 0.13
2,K33M,-0.284 ± 0.038
3,K33R,-0.063 ± 0.025
4,K33G,0.122 ± 0.024
5,K33T,-0.483 ± 0.031
6,K33I,-1.01 ± 0.083
7,D4W,-0.381 ± 0.059
8,D4R,-0.151 ± 0.025
9,D4K,-0.014 ± 0.043
10,D4S,-0.089 ± 0.039
11,D4F,-0.152 ± 0.062
12,R25I,-0.024 ± 0.057
13,R25M,-0.232 ± 0.054
14,R25D,-0.934 ± 0.13
15,I34L,-0.089 ± 0.027
16,I34R,-0.223 ± 0.029
17,I34D,-0.454 ± 0.051
18,I34V,-0.102 ± 0.031
19,L9C,-0.103 ± 0.04
20,L9P,-0.001 ± 0.047
21,L9M,-0.009 ± 0.029
